Laboratory results published in US20140295520A1.

What was measured:
[1] = target: EutS (recombinant EutS shell/compartment) (Salmonella enterica LT2) (UniProt Q9ZFV7); experiment: cell-based or functional assay
[2] = target: EutMNLK (EutM, EutN, EutL and EutK co-expressed without EutS) (Salmonella enterica LT2); experiment: cell-based or functional assay
[3] = target: EutSMNLK (recombinant shell of EutS, EutM, EutN, EutL and EutK) (Salmonella enterica LT2) (UniProt Q9ZFV7); experiment: cell-based or functional assay
[4] = target: EutS-G39V mutant (Salmonella enterica LT2); experiment: cell-based or functional assay
[5] = system: EutS (recombinant EutS shell/compartment)

| Substance | % cells with green flourescent foci (E. coli C2566) [1] | % cells with green flourescent foci (E. coli JM109) [1] | % cells with green flourescent foci (E. coli C2566) [2] | % cells with green flourescent foci (E. coli JM109) [2] | % cells with green flourescent foci (E. coli C2566) [3] | % cells with green flourescent foci (E. coli JM109) [3] | % cells with green flourescent foci (E. coli C2566) [4] | % cells with green flourescent foci (E. coli JM109) [4] | fluorescent localization in E. coli [5] |
| --- | --- | --- | --- | --- | --- | --- | --- | --- | --- |
| Enhanced Green Fluorescent Protein (EGFP) | 0.5% | 0.6% | 0.1% | 0.8% | 0.2% | 1.8% | 0.3% | 2.9% |  |
| EutC^1-19-BTL-2 fused to EGFP (modular cassette) |  |  |  |  |  |  |  |  | Upon co-expression of EutS, the majority of the tagged lipase localizes to a compartment formed somewhat off-center in E. coli |
| EutC^1-19-EGFP | 87% | 84% |  |  | 84% | 79% |  |  |  |
